# Patent US20040259787A1 (published 2004)
# B1: recombinant C-domain of human cC1qR/CRT, thioredoxin fusion protein (other)
# chain: DNFGVLGLDLWQVKSGTIFDNFLITNDEAYAEEFGNETWGVTKAAEKQMKDKQDEEQRLKEEEEDKKRKEEEEAEDKEDDEDKDEDEEDEEDKEEDEEEDVPGQAKDEL
# notes: not shown: thioredoxin fusion partner from plasmid pTrxfus (Invitrogen), expressed in E. coli
# Target: T1, C1q (UniProt P02745 23-245; P02746 28-253; P02747 29-245, radioiodinated (Bolton & Hunter) in the assay of FIG. 2)
# T1 construct: mature; Purified native C1q; also called native fluid-phase C1q; radioiodinated C1q
# Assay: solid-phase domain, radioiodinated C1q, low salt
# T1 sequence (P02745 23-245, chain 1 of 3): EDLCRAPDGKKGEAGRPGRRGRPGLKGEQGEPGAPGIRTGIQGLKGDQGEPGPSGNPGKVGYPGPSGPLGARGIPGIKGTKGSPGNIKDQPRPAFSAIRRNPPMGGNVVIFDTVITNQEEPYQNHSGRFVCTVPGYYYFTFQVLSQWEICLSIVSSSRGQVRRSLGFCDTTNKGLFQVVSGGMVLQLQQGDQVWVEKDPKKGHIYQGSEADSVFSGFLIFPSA
# T1 sequence (P02746 28-253, chain 2 of 3): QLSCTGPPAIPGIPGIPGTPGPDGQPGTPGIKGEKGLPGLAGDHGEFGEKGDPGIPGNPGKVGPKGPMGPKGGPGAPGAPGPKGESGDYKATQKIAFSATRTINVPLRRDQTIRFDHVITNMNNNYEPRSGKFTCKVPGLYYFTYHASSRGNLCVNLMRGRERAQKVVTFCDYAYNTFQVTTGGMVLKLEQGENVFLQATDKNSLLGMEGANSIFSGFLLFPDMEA
# T1 sequence (P02747 29-245, chain 3 of 3): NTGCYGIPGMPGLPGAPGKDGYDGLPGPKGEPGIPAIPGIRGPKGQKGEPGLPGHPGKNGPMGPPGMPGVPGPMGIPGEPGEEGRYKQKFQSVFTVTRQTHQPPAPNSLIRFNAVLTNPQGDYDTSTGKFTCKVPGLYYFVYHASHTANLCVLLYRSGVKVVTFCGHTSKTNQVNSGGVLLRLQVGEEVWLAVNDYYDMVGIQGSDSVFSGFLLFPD
binder,measurement,value
B1,binding result,no binding
